Laboratory results: patent publication US8871909B2, “Antibodies inhibiting c-Met dimerization and uses thereof” (Pierre Fabre Medicament, priority 2007, dated 2014)

What was measured:
BxPC3 cells = assay: In vitro inhibition of BxPC3 proliferation ([3H]thymidine incorporation); format: cell-based; details: BxPC3, in absence of ligand, antibody alone
Procedure: For that purpose 50 000 BxPC3 cells were plated in 96 well plates in RPMI medium, 2 mM L. Glutamine, without SVF. […] After 3 days, cells were pulsed with 0.5 μCi of [^3H]thymidine for 16 hours. The magnitude of [^3H]thymidine incorporated into trichloroacetic acid-insoluble DNA was quantified by liquid scintillation counting. Results were expressed as raw data to really evaluate the intrinsic agonistic effect of each Mab (FIGS. 2A and 2B).

SEMA domain = biological target: T1, SEMA domain (Homo sapiens, UniProt P08581); assay: ELISA recognition of recombinant SEMA domain; format: binding
T1 construct: the recombinant c-Met-Fc protein and the recombinant SEMA domain
Procedure: To characterize the pattern of recognition of the 3 selected antibodies, 3 ELISA have been set up with the recombinant c-Met protein, its monomeric fragment (obtained by cleavage of the recombinant c-Met-Fc protein and the recombinant SEMA domain.
To perform these ELISA the human dimeric c-Met protein (R&D sytems, cat#358MT) is coated at the concentration of 0.7 μg/ml in PBS overnight at 4° C. After saturation of the plates (Costar #3690) with a 0.5% gelatin solution 2 hours at 37° C., hybridoma supernatants are incubated 1 hour at 37° C. Once rinsed with PBS, the anti-mouse HRP-antibody (Jackson ImmunoResearch, catalog #115-035-164) is added to each well at a 1/5000 dilution in ELISA buffer (0.1% gelatin/0.05% Tween 20 in PBS) and the plates incubated for 1 hour at 37° C. […] The reaction is left to occur for 5 min at room temperature. The reaction is stopped by the addition of 50 μl/well of a 1 M H2SO4 solution and read on a plate reader at 450 nm. The same kind of protocol was performed on monomeric c-Met and SEMA domain but in that cases proteins were coated at 5 and 3 μg/ml respectively.

A549 cells = assay: Matrigel invasion assay with A549 cells; format: cell-based; details: A549, Mab 10 μg/ml, basal (no HGF)
Procedure: To evaluate the inhibiting effect of the anti-c-Met antibodies on the invasion process, A549 cells were plated in the upper chamber of BD BioCoat™ Matrigel™ invasion chambers (6.5 mm diameter wells with 8-μm pre size polycarbonate membranes). A459 cells were starved 24 hours before performing the invasion assay. Then 500 000 A549 cells were plated in chemotaxis buffer (DMEM medium, 0.1% BSA, 12 mM Hepes) in the upper well of each chamber, upon the Matrigel coating either with or without the antibody to be tested (final Mab concentration 10 μg/ml). After 1 hour incubation of the plates at 37° C. with 5% CO2, the lower chambers were filled with either growth medium containing 400 ng/ml of rhHGF or with growth medium alone. The chambers were incubated for 48 additional hours at 37° C. with 5% CO2. At the end of this incubation time, cells that remained on upper surface of the filter were gently removed with a cotton swab, cells that migrated to the lower surface of the filter were lysed, stained with CyQuant GR dye buffer (Invitrogen) and counted using a fluorescence reader Berthold Mithras LB940. All conditions were tested as triplicates.

SK-HEP-1 cells = assay: Three-dimensional tubulogenesis assay; format: cell-based; details: SK-HEP-1, antibody 10 μg/ml; for inhibitory effect on tube formation in presence of HGF: HGF 100 ng/ml; for agonist effect on tube formation, alone: no HGF
Procedure: SK-HEP-1 cells were seeded at 1·10^4 cells/well in a 24-well plate in DMEM with 10% FCS/Matrigel (50/50) and incubated for 30 min before addition, at the same time, of HGF (100 ng/ml) and antibodies to be tested (10 μg/ml). After 7 days incubation, cells were assessed for tube formation visually. Each tested condition was tested as a triplicate and 3 independent experiments were performed.

[1] = system: U-87MG, human glioblastoma cells; assay: U87-MG spheroid growth; format: cell-based; details: antibody 10 μg/ml
Procedure: To evaluate the ability of anti-c-Met antibodies to inhibit in vitro tumor growth, in a model closer to an in vivo situation, U-87MG, human glioblastoma cells (ATCC #HTB-14) spheroids were generated. Cells grown as a monolayer were detached with trypsine-EDTA and resuspended into complete cell culture media (DMEM) supplemented with 10% FBS. Spheroids were initiated by inoculating 625 cells into single wells of round bottom, 96 plates in DMEM-10% FCS. To prohibit cell adhesion to a substratum, the plates were pre-coated with polyHEMA in 95% ethanol and air dried at room temperature. The plates were incubated under standard cell culture conditions at 37° C., 5% CO2 in humidified incubators. Purified monoclonal antibodies (10 μg/ml) were added after 3 and 7 days of spheroid culture. HGF (400 ng/ml) was added once after 4 days of culture. Spheroids were kept in culture for at least 10 days. Then, spheroid growth was monitored by measuring the area of spheroids using automeasure module of axiovision software. Area was expressed in μm^2. 8-16 spheroids were evaluated for each condition.
As already described in Example 9 for other Mabs, we evaluate the ability of 224G11 Mab to inhibit in vitro tumor growth in the U87-MG spheroid model. For that purpose, U87-MG cells grown as a monolayer were detached with trypsine-EDTA and resuspended into complete cell culture media. Spheroids were initiated by inoculating 625 cells into single wells of round bottom, 96 plates in DMEM-2.5% FCS. To prohibit cell adhesion to a substratum, the plates were pre-coated with polyHEMA in 95% ethanol and air dried at room temperature. The plates were incubated under standard cell culture conditions at 37° C., 5% CO2 in humidified incubators. Purified monoclonal antibodies (10 μg/ml) were added after 4 and 10 days of spheroid culture. Spheroids were kept in culture for 17 days. Then, spheroid growth was monitored by measuring the area of spheroids using automeasure module of axiovision software. Area was expressed in μm^2. 8-16 spheroids were evaluated for each condition. Spheroid size was measured before addition of antibodies, after 10 days of culture and after 17 days of culture.

[2] = Example 9: DMEM-10% FCS, in presence and in absence of HGF 400 ng/ml
[3] = Example 23: DMEM-2.5% FCS, 10 or 17 days of culture

T1 sequence (P08581 27-515 limits assumed): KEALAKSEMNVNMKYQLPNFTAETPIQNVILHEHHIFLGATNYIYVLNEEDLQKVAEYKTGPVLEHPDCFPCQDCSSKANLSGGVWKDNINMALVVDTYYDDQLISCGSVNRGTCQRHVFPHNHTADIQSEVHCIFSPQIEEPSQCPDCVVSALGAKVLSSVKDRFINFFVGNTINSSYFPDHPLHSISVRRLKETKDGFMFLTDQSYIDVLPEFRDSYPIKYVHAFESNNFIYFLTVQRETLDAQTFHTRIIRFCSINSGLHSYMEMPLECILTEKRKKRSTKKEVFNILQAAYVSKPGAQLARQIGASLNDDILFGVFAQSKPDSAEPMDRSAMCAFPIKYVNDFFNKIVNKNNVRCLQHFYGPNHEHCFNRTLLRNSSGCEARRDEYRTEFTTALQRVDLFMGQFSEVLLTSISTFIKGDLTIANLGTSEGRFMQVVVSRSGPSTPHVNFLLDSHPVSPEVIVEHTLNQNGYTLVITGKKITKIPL

Molecule	agonist activity on cell proliferation (BxPC3 cells)	binding to SEMA domain (SEMA domain)	agonist effect on invasion, added alone (A549 cells)	inhibitory effect on tube formation in presence of HGF (SK-HEP-1 cells)	agonist effect on tube formation, alone (SK-HEP-1 cells)	effect on spheroid growth [1, 2]	effect on spheroid growth [1, 3]
11E1: murine anti-c-Met monoclonal antibody, IgG1 kappa; heavy chain SEQ ID No. 62, light chain SEQ ID No. 63 (antibody, V domains shown, mus musculus) VH: QVQLQQSGAELAKPGASVKMSCKASGYTFTSYWMNWVKQRPGQGLEWIGYINPTTGSTDYNQKLKDKATLTADKSSNTAYMQLSSLTSEDSAVYYCAIGGYGSWFAYWGQGTLVTVSA VL: QIVLTQSPAIMSASPGEKVTLTCSASSSVSSTYLYWYQQKPGSSPKLWIYTTSILASGVPARFSGSGSGTSYSLTISSMETEDAASYFCHQWSSYPFTFGSGTKLDIK	without any agonist activity	able to bind	No agonist effect	full inhibitory effect	No agonistic effect	reduced significantly	markedly inhibited
224G11: murine anti-c-Met monoclonal antibody, IgG1 kappa; heavy chain SEQ ID No. 18, light chain SEQ ID No. 21 (antibody, V domains shown, mus musculus) VH: EVQLQQSGPELVKPGASVKISCKTSGYIFTAYTMHWVRQSLGESLDWIGGIKPNNGLANYNQKFKGKATLTVDKSSSTAYMDLRSLTSEDSAVYYCARSEITTEFDYWGQGTALTVSS VL: DIVLTQSPASLAVSLGQRATISCRASESVDSYANSFMHWYQQKPGQPPKLLIYRASNLESGIPARFSGSGSRTDFTLTINPVEADDVATYYCQQSKEDPLTFGSGTKLEMK	without any agonist activity	did not bind	No agonist effect	partial but significant inhibition	No agonistic effect	–	markedly inhibited
223C4: murine anti-c-Met monoclonal antibody, IgG1 kappa; heavy chain SEQ ID No. 20, light chain SEQ ID No. 23 (antibody, V domains shown, mus musculus) VH: EVLLQQSGPELVKPGASVKIPCKASGYTFTDYNMDWVKQSHGMSLEWIGDINPNNGGTIFNQKFKGKATLTVDKSSSTAYMELRSLTSEDTAVYYCARGRYVGYYYAMDYWGQGTSVTVSS VL: DIQMTQSPASLSVSVGETVTITCRASENIYSNLAWYQQKQGKSPQLLVYAATNLVDGVPSRFSGSGSGTQYSLKINSLQSEDFGSYYCQHFWGPPYTFGGGTKLEIK	without any agonist activity	did not bind	No agonist effect	full inhibitory effect	No agonistic effect	reduced significantly	–
